B1: TBX5 (parent)
chain: FHEVGTEMIITKAGRRMFPSYKVK

Variants of: B1
Test: protein stability index of a GFP-peptide fusion (GPS, HEK-293T) (PSI 1-6); higher = more stable
Details: c terminus: a fixed tail appended
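Note: lentivirally expressed fusions sorted by FACS into six bins by GFP to DsRed ratio, PSI derived from sequencing read proportions per bin multiplied by bin number.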

Variant | protein stability index
M17P | 1.84
M17F | 2
M17D | 2.28
M17E | 2.83
M17L | 2.27
M17T | 1.98
M17Y | 2.44
M17Q | 2.5
M17K | 2.11
M17G | 1.67
M17C | 2.05
M17R | 2.57
M17H | 1.71
M17N | 1.87
M17V | 1.63
M17A | 2.38
M17I | 1.98
M17S | 2.68
R16Y | 1.92
R16G | 2.43
R16V | 1.54
R16P | 2.11
R16H | 2.02
R16C | 1.59

Variant | protein stability index
R16F | 2.31
R16S | 1.75
R16I | 1.81
R16N | 2.54
R16K | 2.65
R16D | 2.15
R16A | 1.91
R16L | 2.09
R16T | 2.03
R16E | 2.38
R16M | 1.96
R16Q | 1.85
R15F | 1.91
R15M | 1.59
R15Y | 2.58
R15T | 2.21
R15H | 2.14
R15D | 2.71
R15N | 2.29
R15A | 2.18
R15K | 1.92
R15E | 1.74
R15I | 1.83
R15V | 1.72

Variant | protein stability index
R15Q | 2.2
R15L | 1.81
R15C | 2.63
R15W | 1.53
R15G | 1.77
R15S | 1.69
R15P | 1.87
K22F | 1.65
K22S | 2.18
K22Q | 1.79
K22M | 2.01
K22I | 2.03
K22Y | 2.89
K22T | 1.51
K22H | 1.55
K22A | 1.97
K22E | 1.9
K22W | 1.98
K22C | 1.86
K22L | 2.14
K22V | 1.43
K22G | 2.28
K22N | 2.03
K22R | 2.45

Variant | protein stability index
K22P | 2.08
K22D | 2.34
T11Y | 1.02
T11D | 2.13
T11V | 1.76
T11I | 1.19
T11Q | 1.88
T11S | 3.49
T11L | 2.14
T11P | 2.28
T11K | 2.59
T11F | 1.71
T11N | 2.46
T11E | 2.36
T11R | 2.47
T11M | 1.53
F18R | 1.76
F18C | 2.61
F18T | 1.92
F18K | 1.94
F18W | 1.8
F18Y | 2.07
F18L | 2.51
F18E | 2.34

Variant | protein stability index
F18P | 2.11
F18I | 2.07
F18G | 2.25
F18H | 3.08
F18V | 2.01
F18M | 2.23
F18Q | 2.58
F18S | 2.41
F18A | 2.76
F18N | 2.07
K12C | 1.31
K12Y | 2.91
K12T | 1.78
K12L | 2.81
K12A | 2.52
K12S | 2.51
K12V | 2.68
K12F | 2.76
K12E | 1.83
K12I | 1.6
K12H | 1.8
K12Q | 1.73
K12D | 2.57
K12N | 2.1

Variant | protein stability index
K12R | 2.02
K12G | 2.1
K12P | 2.12
G14R | 1.64
G14K | 1.68
G14A | 2.6
G14V | 1.62
G14W | 1.95
G14T | 2.42
G14L | 1.71
G14Q | 2.17
G14I | 1.66
G14M | 1.49
G14S | 1.83
G14Y | 2.17
G14N | 2.04
G14P | 2.86
G14D | 1.48
G14E | 2
G14F | 2.41
G14H | 1.73
Y21P | 2.13
Y21V | 1.86
Y21R | 3.16

Variant | protein stability index
Y21I | 1.48
Y21G | 2.51
Y21E | 2.92
Y21W | 1.87
Y21M | 1.95
Y21Q | 2.7
Y21N | 2.55
Y21H | 3.03
Y21L | 2.15
Y21T | 2.42
Y21F | 2.83
Y21K | 2.21
Y21A | 2.66
Y21D | 2.64
Y21C | 2.21
Y21S | 2.61
K24G | 2.03
K24R | 1.51
K24E | 1.89
K24H | 1.59
K24V | 1.65
K24W | 1.65
K24Y | 2.08

— the supplement of paper PMC10567573
